# Data published in patent publication US20220298218A1 (ANTAG THERAPEUTICS, published 2022).
# *1 amine or outer side, *2 acyl side, *3 side chain or, on linkers, in order; H or OH if unused. Where no end group is shown, it is not given here. Side-chain parts run from the residue outwards. [ ]: non-standard residue; d: D form. The star is where a group is joined. C18 diacid = O=C(O)CCCCCCCCCCCCCCCCC(=O)*; C16 diacid = O=C(O)CCCCCCCCCCCCCCC(=O)*; γGlu = O=C(O)[C@H](CCC(=O)[*:2])N[*:1]; Nle = CCCC[C@H](N)C(=O)O; PEG = not defined here; Aib = CC(C)(N)C(=O)O
# T1: human GIP receptor (human, UniProt P48546 22-466)
# T1 sequence (looked up): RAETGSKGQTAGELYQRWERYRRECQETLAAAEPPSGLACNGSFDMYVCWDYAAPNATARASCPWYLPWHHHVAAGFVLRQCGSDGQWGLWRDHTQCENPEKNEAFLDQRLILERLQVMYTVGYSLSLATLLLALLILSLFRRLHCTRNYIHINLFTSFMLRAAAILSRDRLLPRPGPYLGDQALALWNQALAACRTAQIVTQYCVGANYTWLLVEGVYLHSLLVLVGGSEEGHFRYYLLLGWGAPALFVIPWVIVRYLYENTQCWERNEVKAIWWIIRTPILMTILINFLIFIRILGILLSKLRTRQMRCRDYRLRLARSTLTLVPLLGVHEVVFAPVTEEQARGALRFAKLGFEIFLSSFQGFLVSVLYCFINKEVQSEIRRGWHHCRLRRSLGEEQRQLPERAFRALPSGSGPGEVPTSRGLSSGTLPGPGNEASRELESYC
# B1: AT602 (peptide)
# peptide: TFISDYK([PEG-PEG-γGlu-C18 diacid])IAMDKIHQQDFVNWLLAGGPSSGAPPPS
# modifications: not fully specified (C-terminus); reading uncertain
# B2: AT597 (peptide)
# peptide: TFISDYK([PEG-PEG-γGlu-C18 diacid])IAMDKIHQQDFVNWLLAQKPSSGAPPPS-NH2
# modifications: reading uncertain; also: 2xPEG: PEG unit not given here
# B3: AT619 (peptide)
# peptide: EGTFISDYSIALDKIKQQDFVNWLLAQKPSSGAPPPS
# modifications: Nle at 14; K18: C16-diacid; C-term COOH
# B4: AT615 (peptide)
# peptide: EGTFISEYS[Aib]A[Nle]EKIK(C16 diacid)QQDFVEWLLAQKPSSGAPPPS-OH
# modifications: N-terminus assumed
# SMILES: CCCC[C@H](NC(=O)[C@H](C)NC(=O)C(C)(C)NC(=O)[C@H](CO)NC(=O)[C@H](Cc1ccc(O)cc1)NC(=O)[C@H](CCC(=O)O)NC(=O)[C@H](CO)NC(=O)[C@@H](NC(=O)[C@H](Cc1ccccc1)NC(=O)[C@@H](NC(=O)CNC(=O)[C@@H](N)CCC(=O)O)[C@@H](C)O)[C@@H](C)CC)C(=O)N[C@@H](CCC(=O)O)C(=O)N[C@@H](CCCCN)C(=O)N[C@H](C(=O)N[C@@H](CCCCNC(=O)CCCCCCCCCCCCCCC(=O)O)C(=O)N[C@@H](CCC(N)=O)C(=O)N[C@@H](CCC(N)=O)C(=O)N[C@@H](CC(=O)O)C(=O)N[C@@H](Cc1ccccc1)C(=O)N[C@H](C(=O)N[C@@H](CCC(=O)O)C(=O)N[C@@H](Cc1c[nH]c2ccccc12)C(=O)N[C@@H](CC(C)C)C(=O)N[C@@H](CC(C)C)C(=O)N[C@@H](C)C(=O)N[C@@H](CCC(N)=O)C(=O)N[C@@H](CCCCN)C(=O)N1CCC[C@H]1C(=O)N[C@@H](CO)C(=O)N[C@@H](CO)C(=O)NCC(=O)N[C@@H](C)C(=O)N1CCC[C@H]1C(=O)N1CCC[C@H]1C(=O)N1CCC[C@H]1C(=O)N[C@@H](CO)C(=O)O)C(C)C)[C@@H](C)CC
# B5: AT613 (peptide)
# peptide: EGTFISEYSIAMEKIK(C16 diacid)QQEFVQWLLAQKPSSGAPPPS-OH
# modifications: N-terminus assumed
# SMILES: CC[C@H](C)[C@H](NC(=O)[C@H](CO)NC(=O)[C@H](Cc1ccc(O)cc1)NC(=O)[C@H](CCC(=O)O)NC(=O)[C@H](CO)NC(=O)[C@@H](NC(=O)[C@H](Cc1ccccc1)NC(=O)[C@@H](NC(=O)CNC(=O)[C@@H](N)CCC(=O)O)[C@@H](C)O)[C@@H](C)CC)C(=O)N[C@@H](C)C(=O)N[C@@H](CCSC)C(=O)N[C@@H](CCC(=O)O)C(=O)N[C@@H](CCCCN)C(=O)N[C@H](C(=O)N[C@@H](CCCCNC(=O)CCCCCCCCCCCCCCC(=O)O)C(=O)N[C@@H](CCC(N)=O)C(=O)N[C@@H](CCC(N)=O)C(=O)N[C@@H](CCC(=O)O)C(=O)N[C@@H](Cc1ccccc1)C(=O)N[C@H](C(=O)N[C@@H](CCC(N)=O)C(=O)N[C@@H](Cc1c[nH]c2ccccc12)C(=O)N[C@@H](CC(C)C)C(=O)N[C@@H](CC(C)C)C(=O)N[C@@H](C)C(=O)N[C@@H](CCC(N)=O)C(=O)N[C@@H](CCCCN)C(=O)N1CCC[C@H]1C(=O)N[C@@H](CO)C(=O)N[C@@H](CO)C(=O)NCC(=O)N[C@@H](C)C(=O)N1CCC[C@H]1C(=O)N1CCC[C@H]1C(=O)N1CCC[C@H]1C(=O)N[C@@H](CO)C(=O)O)C(C)C)[C@@H](C)CC
# B6: AT616 (peptide)
# peptide: EGTFISEYSI[Aib]MEKIK(C16 diacid)QQDFVEWLLAQKPSSGAPPPS-OH
# modifications: N-terminus assumed
# SMILES: CC[C@H](C)[C@H](NC(=O)[C@H](CCCCN)NC(=O)[C@H](CCC(=O)O)NC(=O)[C@H](CCSC)NC(=O)C(C)(C)NC(=O)[C@@H](NC(=O)[C@H](CO)NC(=O)[C@H](Cc1ccc(O)cc1)NC(=O)[C@H](CCC(=O)O)NC(=O)[C@H](CO)NC(=O)[C@@H](NC(=O)[C@H](Cc1ccccc1)NC(=O)[C@@H](NC(=O)CNC(=O)[C@@H](N)CCC(=O)O)[C@@H](C)O)[C@@H](C)CC)[C@@H](C)CC)C(=O)N[C@@H](CCCCNC(=O)CCCCCCCCCCCCCCC(=O)O)C(=O)N[C@@H](CCC(N)=O)C(=O)N[C@@H](CCC(N)=O)C(=O)N[C@@H](CC(=O)O)C(=O)N[C@@H](Cc1ccccc1)C(=O)N[C@H](C(=O)N[C@@H](CCC(=O)O)C(=O)N[C@@H](Cc1c[nH]c2ccccc12)C(=O)N[C@@H](CC(C)C)C(=O)N[C@@H](CC(C)C)C(=O)N[C@@H](C)C(=O)N[C@@H](CCC(N)=O)C(=O)N[C@@H](CCCCN)C(=O)N1CCC[C@H]1C(=O)N[C@@H](CO)C(=O)N[C@@H](CO)C(=O)NCC(=O)N[C@@H](C)C(=O)N1CCC[C@H]1C(=O)N1CCC[C@H]1C(=O)N1CCC[C@H]1C(=O)N[C@@H](CO)C(=O)O)C(C)C
# B7: AT617 (peptide)
# peptide: EGTFISDYSIAMDKIK(C16 diacid)QQDFVEWLLAQKPSSGAPPPS-OH
# modifications: N-terminus assumed
# SMILES: CC[C@H](C)[C@H](NC(=O)[C@H](CO)NC(=O)[C@H](Cc1ccc(O)cc1)NC(=O)[C@H](CC(=O)O)NC(=O)[C@H](CO)NC(=O)[C@@H](NC(=O)[C@H](Cc1ccccc1)NC(=O)[C@@H](NC(=O)CNC(=O)[C@@H](N)CCC(=O)O)[C@@H](C)O)[C@@H](C)CC)C(=O)N[C@@H](C)C(=O)N[C@@H](CCSC)C(=O)N[C@@H](CC(=O)O)C(=O)N[C@@H](CCCCN)C(=O)N[C@H](C(=O)N[C@@H](CCCCNC(=O)CCCCCCCCCCCCCCC(=O)O)C(=O)N[C@@H](CCC(N)=O)C(=O)N[C@@H](CCC(N)=O)C(=O)N[C@@H](CC(=O)O)C(=O)N[C@@H](Cc1ccccc1)C(=O)N[C@H](C(=O)N[C@@H](CCC(=O)O)C(=O)N[C@@H](Cc1c[nH]c2ccccc12)C(=O)N[C@@H](CC(C)C)C(=O)N[C@@H](CC(C)C)C(=O)N[C@@H](C)C(=O)N[C@@H](CCC(N)=O)C(=O)N[C@@H](CCCCN)C(=O)N1CCC[C@H]1C(=O)N[C@@H](CO)C(=O)N[C@@H](CO)C(=O)NCC(=O)N[C@@H](C)C(=O)N1CCC[C@H]1C(=O)N1CCC[C@H]1C(=O)N1CCC[C@H]1C(=O)N[C@@H](CO)C(=O)O)C(C)C)[C@@H](C)CC
# B8: AT614 (peptide)
# peptide: EGTFISEYSIAMEKIK(C16 diacid)QQDFVEWLLAQKPSSGAPPPS-OH
# modifications: N-terminus assumed
# SMILES: CC[C@H](C)[C@H](NC(=O)[C@H](CO)NC(=O)[C@H](Cc1ccc(O)cc1)NC(=O)[C@H](CCC(=O)O)NC(=O)[C@H](CO)NC(=O)[C@@H](NC(=O)[C@H](Cc1ccccc1)NC(=O)[C@@H](NC(=O)CNC(=O)[C@@H](N)CCC(=O)O)[C@@H](C)O)[C@@H](C)CC)C(=O)N[C@@H](C)C(=O)N[C@@H](CCSC)C(=O)N[C@@H](CCC(=O)O)C(=O)N[C@@H](CCCCN)C(=O)N[C@H](C(=O)N[C@@H](CCCCNC(=O)CCCCCCCCCCCCCCC(=O)O)C(=O)N[C@@H](CCC(N)=O)C(=O)N[C@@H](CCC(N)=O)C(=O)N[C@@H](CC(=O)O)C(=O)N[C@@H](Cc1ccccc1)C(=O)N[C@H](C(=O)N[C@@H](CCC(=O)O)C(=O)N[C@@H](Cc1c[nH]c2ccccc12)C(=O)N[C@@H](CC(C)C)C(=O)N[C@@H](CC(C)C)C(=O)N[C@@H](C)C(=O)N[C@@H](CCC(N)=O)C(=O)N[C@@H](CCCCN)C(=O)N1CCC[C@H]1C(=O)N[C@@H](CO)C(=O)N[C@@H](CO)C(=O)NCC(=O)N[C@@H](C)C(=O)N1CCC[C@H]1C(=O)N1CCC[C@H]1C(=O)N1CCC[C@H]1C(=O)N[C@@H](CO)C(=O)O)C(C)C)[C@@H](C)CC
# B9: AT618 (peptide)
# peptide: EGTFISDYSIALDKIK(C16 diacid)QQDFVNWLLAQKPSSGAPPPS-OH
# modifications: N-terminus assumed
# SMILES: CC[C@H](C)[C@H](NC(=O)[C@H](CO)NC(=O)[C@H](Cc1ccc(O)cc1)NC(=O)[C@H](CC(=O)O)NC(=O)[C@H](CO)NC(=O)[C@@H](NC(=O)[C@H](Cc1ccccc1)NC(=O)[C@@H](NC(=O)CNC(=O)[C@@H](N)CCC(=O)O)[C@@H](C)O)[C@@H](C)CC)C(=O)N[C@@H](C)C(=O)N[C@@H](CC(C)C)C(=O)N[C@@H](CC(=O)O)C(=O)N[C@@H](CCCCN)C(=O)N[C@H](C(=O)N[C@@H](CCCCNC(=O)CCCCCCCCCCCCCCC(=O)O)C(=O)N[C@@H](CCC(N)=O)C(=O)N[C@@H](CCC(N)=O)C(=O)N[C@@H](CC(=O)O)C(=O)N[C@@H](Cc1ccccc1)C(=O)N[C@H](C(=O)N[C@@H](CC(N)=O)C(=O)N[C@@H](Cc1c[nH]c2ccccc12)C(=O)N[C@@H](CC(C)C)C(=O)N[C@@H](CC(C)C)C(=O)N[C@@H](C)C(=O)N[C@@H](CCC(N)=O)C(=O)N[C@@H](CCCCN)C(=O)N1CCC[C@H]1C(=O)N[C@@H](CO)C(=O)N[C@@H](CO)C(=O)NCC(=O)N[C@@H](C)C(=O)N1CCC[C@H]1C(=O)N1CCC[C@H]1C(=O)N1CCC[C@H]1C(=O)N[C@@H](CO)C(=O)O)C(C)C)[C@@H](C)CC
# Biological target: T1, human GIP receptor
# Test: cell-based or functional assay
Binder,cAMP agonism % Emax [%],cAMP antagonism [nM],cAMP antagonism % inhib [%],cAMP antagonism pIC50
B1,0,35.5,100,7.5
B2,0,79.4,81,7.1
B3,0,2.19,87,8.7
B4,0,7.94,97,8.1
B5,0,1.47,100,8.8
B6,0,0.473,100,9.3
B7,0,0.794,91,9.1
B8,0,1.08,100,9
B9,0,3.98,82,8.4
